Ends that are not written are not given here. * marks the point of attachment. Dansyl = CN(C)c1cccc2c(S(=O)(=O)*)cccc12
Key:
collagen [1] = biological target: T1, collagen; assay: fluorescence plate binding assay, dansyl peptide on collagen-coated 96-well plate, equilibrium
T1 construct: also called collagen-treated well; collagen surface
Experimental: (§1) Binding assays were done in a 96-well high-binding plate, black with a clear bottom (Costar). Collagen was compared to untreated wells and BSA coated wells. Collagen and BSA were immobilized at 37° C. for 1 hr by incubating 90 μL/well at concentrations of 2 mg/mL in 10 mM HCl and 1× PBS, respectively. Each well was washed 3× with 1× PBS after incubating. Z-SILY was dissolved in 1× PBS at concentrations from 100 μM to 10 nM in 10-fold dilutions. Wells were incubated for 30 min at 37° C. and rinsed 3× with PBS and then filled with 90 μL of 1× PBS. Fluorescence readings were taken on an M5 Spectramax Spectrophotometer (Molecular Devices) at excitation/emission wavelengths of 335 nm/490 nm respectively.

collagen [2] = biological target: T1, collagen; assay: fluorescence plate binding assay, dansyl peptide on collagen-coated wells, curve fitted to the data of FIG. 3
Experimental: as §1

B1: Dansyl-GRRANAALKAGELYKSILYGC (peptide)
peptide: Dansyl-GRRANAALKAGELYKSILYGC
notes: Fluorescently labelled version of SILY, tested as free peptide; also called ZSILY; Z-SILY
For B1, which Kd (collagen [1]) is on record?
The Kd was 860 nM.

And the “EC50 (read off the curve)” value (collagen [2])?
The value was about 900 nM.
